Assay results: US20260028401A1 (SHENGHE CHINA BIOPHARMACEUTICAL, published 2026)

Key:
[1] = biological target: T1, Human LILRB2/CD85d/ILT4 Protein, His Tag (Manufacturer: KACTUS, Cat: LIL-HM4B2) (human, UniProt Q8N423 22-460, limits assumed); experiment: BLI (ForteBio, AHC biosensors), ILT4 His protein loaded as written, antibody at 100 nM, 180 s association, 200 s dissociation; non-humanized antibody of the invention
T1 construct: Bought recombinant protein; not shown: His tag
Procedure: AHC Biosensors (Manufacturer: ForteBio. Inc., Cat: 18-5060) were pre-wetted for 20 min using PBST buffer and added to Human LILRB2/CD85d/ILT4 Protein, His Tag (Manufacturer: KATUS, Cat: LIL-HM4B2) protein diluted to 20 μg/mL using PBST to a target protein loading thickness of 1 nm. The antibody of the present invention and the antibody (humanized antibody) of the present invention (VHH and Fc sequences were SEQ ID NO: 6 and SEQ ID NO: 7, respectively) was diluted to 100 nM using PBST and added to the above sensor, and bound for 180 s and dissociated for 200 s.

[2] = biological target: T2, ILT4 on CHO-ILT4 cells (Manufacturer: Kang Yuan Bochuang, Cat: KC-1473) (UniProt Q8N423 22-597, limits assumed); experiment: flow cytometry on CHO-ILT4 cells, 7-point 5-fold titration, anti-VHH PE detection
T2 construct: whole, on cells; also called ILT4 cell line
T2 sequence (Q8N423 22-597 limits assumed): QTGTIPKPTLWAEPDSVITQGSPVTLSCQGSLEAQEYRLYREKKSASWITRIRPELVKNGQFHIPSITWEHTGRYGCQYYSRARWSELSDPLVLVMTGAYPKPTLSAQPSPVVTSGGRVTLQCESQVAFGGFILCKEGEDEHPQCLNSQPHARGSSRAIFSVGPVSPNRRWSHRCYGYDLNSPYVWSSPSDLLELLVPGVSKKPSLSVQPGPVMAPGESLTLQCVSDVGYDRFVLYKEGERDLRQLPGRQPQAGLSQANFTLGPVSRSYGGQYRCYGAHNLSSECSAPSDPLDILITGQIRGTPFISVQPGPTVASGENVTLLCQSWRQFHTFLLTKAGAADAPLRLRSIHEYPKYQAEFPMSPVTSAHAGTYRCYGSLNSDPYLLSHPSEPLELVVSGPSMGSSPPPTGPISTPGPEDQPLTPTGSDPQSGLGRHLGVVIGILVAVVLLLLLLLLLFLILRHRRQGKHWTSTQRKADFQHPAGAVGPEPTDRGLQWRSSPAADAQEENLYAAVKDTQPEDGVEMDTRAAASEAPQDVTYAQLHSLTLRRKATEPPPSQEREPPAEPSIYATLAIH

T1 sequence (Q8N423 22-460 limits assumed): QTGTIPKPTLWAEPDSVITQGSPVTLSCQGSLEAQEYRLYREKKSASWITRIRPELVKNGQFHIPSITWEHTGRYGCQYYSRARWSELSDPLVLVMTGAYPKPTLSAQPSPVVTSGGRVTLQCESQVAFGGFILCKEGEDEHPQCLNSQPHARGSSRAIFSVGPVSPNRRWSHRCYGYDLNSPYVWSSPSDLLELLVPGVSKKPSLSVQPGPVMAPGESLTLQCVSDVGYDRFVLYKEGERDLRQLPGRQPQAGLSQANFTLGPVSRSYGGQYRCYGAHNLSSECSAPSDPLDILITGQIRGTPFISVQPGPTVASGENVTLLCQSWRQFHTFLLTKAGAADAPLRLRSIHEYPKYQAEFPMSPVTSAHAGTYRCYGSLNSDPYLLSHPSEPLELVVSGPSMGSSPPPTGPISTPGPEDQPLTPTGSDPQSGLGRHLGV

Kd [1]: 0.107 nM | EC50 [2]: 0.36 µg/mL
B1: the antibody of the present invention (anti-ILT4 single-domain antibody, alpaca VHH, SEQ ID NO: 4) (VHH)
VHH: EVQLVESGGGLGQAGGSLRLSCVVSGRTFSRYAMGWFRQAPGKEREFVAAISWSPGDITTYADSVRGRFTISRDNAKNTVYLQMNSLKPEDTAVYYCAADPTAWGTQYDYWGQGTQVTVSS
notes: VHH screened from an alpaca immune library
